Test results taken from PMC10397247.

Columns and labels:
Assay in all cases: two-hybrid library CCNG1;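 note: natural log of median RNA to DNA barcode read ratio; higher means stronger binding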
[1] = biological target: T1, 4H2134-bH
T1 chain: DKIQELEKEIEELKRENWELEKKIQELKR

[2] = biological target: T2, 4H3277-bH
T2 chain: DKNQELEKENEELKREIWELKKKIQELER

[3] = biological target: T3, 4H2223-bH
T3 chain: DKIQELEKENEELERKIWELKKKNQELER

[4] = biological target: T4, 4H2473-bH
T4 chain: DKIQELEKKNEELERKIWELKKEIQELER

[5] = biological target: T5, 4H2438-bH
T5 chain: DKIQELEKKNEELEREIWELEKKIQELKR

[6] = biological target: T6, 4H2143-bH
T6 chain: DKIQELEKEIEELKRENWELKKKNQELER

[7] = biological target: T7, 4H477-bH
T7 chain: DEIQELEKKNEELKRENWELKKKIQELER

[8] = biological target: T8, 4H3057-bH
T8 chain: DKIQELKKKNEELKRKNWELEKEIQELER

[9] = biological target: T9, 4H2503-bH
T9 chain: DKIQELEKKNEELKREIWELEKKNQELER

[10] = biological target: T10, 4H2717-bH
T10 chain: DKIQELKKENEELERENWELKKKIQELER

[11] = biological target: T11, 4H2915-bH
T11 chain: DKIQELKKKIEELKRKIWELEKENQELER

[12] = biological target: T12, 4H3858-bN
T12 chain: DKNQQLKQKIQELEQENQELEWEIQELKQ

[13] = biological target: T13, 4H492-bH
T13 chain: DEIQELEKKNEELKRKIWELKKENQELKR

[14] = biological target: T14, 4H40-bH
T14 chain: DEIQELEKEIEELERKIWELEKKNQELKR

[15] = biological target: T15, 4H741-bH
T15 chain: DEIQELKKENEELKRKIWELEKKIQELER

[16] = biological target: T16, 4H2839-bH
T16 chain: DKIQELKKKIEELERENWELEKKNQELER

[17] = biological target: T17, 4H2692-bH
T17 chain: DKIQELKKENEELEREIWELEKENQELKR

[18] = biological target: T18, 4H348-bH
T18 chain: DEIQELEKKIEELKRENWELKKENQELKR

[19] = biological target: T19, 4H319-bH
T19 chain: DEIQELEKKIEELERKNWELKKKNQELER

[20] = biological target: T20, 4H2588-bH
T20 chain: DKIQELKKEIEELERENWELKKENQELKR

[21] = biological target: T21, 4H4038-bA
T21 chain: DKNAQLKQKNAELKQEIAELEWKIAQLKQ

[22] = biological target: T22, 4H3907-bA
T22 chain: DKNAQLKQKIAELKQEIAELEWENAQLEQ

[23] = biological target: T23, 4H1387-bA
T23 chain: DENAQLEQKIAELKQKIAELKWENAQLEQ

[24] = biological target: T24, 4H1406-bA
T24 chain: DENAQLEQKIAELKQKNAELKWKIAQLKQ

[25] = biological target: T25, 4H3601-bA
T25 chain: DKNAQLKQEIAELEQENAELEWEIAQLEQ

[26] = biological target: T26, 4H3592-bA
T26 chain: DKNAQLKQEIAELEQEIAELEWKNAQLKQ

[27] = biological target: T27, P8A-bN
T27 chain: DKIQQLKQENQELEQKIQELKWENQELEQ

[28] = biological target: T28, P9A-bN
T28 chain: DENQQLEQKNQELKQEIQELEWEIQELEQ

[29] = biological target: T29, P4A-bN
T29 chain: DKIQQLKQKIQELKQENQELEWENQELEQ

[30] = biological target: T30, P7A-bN
T30 chain: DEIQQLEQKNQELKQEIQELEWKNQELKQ

[31] = biological target: T31, P5A-bN
T31 chain: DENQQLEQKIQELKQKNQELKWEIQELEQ

[32] = biological target: T32, P1A-bN
T32 chain: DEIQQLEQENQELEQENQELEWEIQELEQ

[33] = biological target: T33, P12A-bN
T33 chain: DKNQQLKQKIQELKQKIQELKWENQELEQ

[34] = biological target: T34, P3A-bN
T34 chain: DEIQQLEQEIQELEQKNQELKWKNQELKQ

[35] = biological target: T35, P2A-bN
T35 chain: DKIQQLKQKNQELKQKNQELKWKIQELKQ

[36] = biological target: T36, P6A-bN
T36 chain: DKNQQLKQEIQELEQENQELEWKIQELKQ

[37] = biological target: T37, O12-bP
T37 chain: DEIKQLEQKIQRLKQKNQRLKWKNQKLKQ

[38] = biological target: T38, O11-bP
T38 chain: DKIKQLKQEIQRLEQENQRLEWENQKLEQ

[39] = biological target: T39, O8-bP
T39 chain: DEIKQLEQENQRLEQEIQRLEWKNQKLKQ

[40] = biological target: T40, O14-bP
T40 chain: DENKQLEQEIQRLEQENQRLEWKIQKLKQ

[41] = biological target: T41, O6-bP
T41 chain: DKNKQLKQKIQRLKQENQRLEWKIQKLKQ

[42] = biological target: T42, O16-bP
T42 chain: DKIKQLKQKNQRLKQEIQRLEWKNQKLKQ

[43] = biological target: T43, O3-bP
T43 chain: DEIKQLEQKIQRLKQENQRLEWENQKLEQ

[44] = biological target: T44, O7-bP
T44 chain: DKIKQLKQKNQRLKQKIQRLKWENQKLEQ

[45] = biological target: T45, O5-bP
T45 chain: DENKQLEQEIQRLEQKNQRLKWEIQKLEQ

[46] = biological target: T46, O13-bP
T46 chain: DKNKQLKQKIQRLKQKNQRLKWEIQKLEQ

[47] = biological target: T47, O9-bP
T47 chain: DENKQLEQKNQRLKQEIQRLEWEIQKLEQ

[48] = biological target: T48, O2-bP
T48 chain: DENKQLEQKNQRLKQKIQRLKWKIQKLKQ

[49] = biological target: T49, O15-bP
T49 chain: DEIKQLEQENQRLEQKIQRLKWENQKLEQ

[50] = biological target: T50, O4-bP
T50 chain: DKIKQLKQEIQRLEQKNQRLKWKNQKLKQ

B1: 4H2134-bH (peptide)
chain: DKIQELEKEIEELKRENWELEKKIQELKR
[1]
  interaction score: 0.746
[2]
  interaction score: -0.74
[3]
  interaction score: -0.653
[4]
  interaction score: 0.459
[5]
  interaction score: 0.0398
[6]
  interaction score: 0.0686
[7]
  interaction score: 1.08
[8]
  interaction score: 1.45
[9]
  interaction score: 1.45
[10]
  interaction score: 1.07
[11]
  interaction score: 1.56
[12]
  interaction score: 0.573
[13]
  interaction score: 0.362
[14]
  interaction score: -0.995
[15]
  interaction score: 0.37
[16]
  interaction score: 0.785
[17]
  interaction score: 0.18
[18]
  interaction score: -0.551
[19]
  interaction score: 0.925
[20]
  interaction score: 1.01

B2: 4H1387-bA (peptide)
chain: DENAQLEQKIAELKQKIAELKWENAQLEQ
[21]
  interaction score: 0.838
[22]
  interaction score: 1.32
[23]
  interaction score: -0.828
[24]
  interaction score: -1.1
[25]
  interaction score: -0.539
[26]
  interaction score: 2.02

B3: P12A-bN (peptide)
chain: DKNQQLKQKIQELKQKIQELKWENQELEQ
[27]
  interaction score: -1.71
[28]
  interaction score: -1.28
[29]
  interaction score: -0.221
[30]
  interaction score: -0.617
[31]
  interaction score: -1.2
[32]
  interaction score: -1.71
[33]
  interaction score: -0.758
[34]
  interaction score: 1.82
[35]
  interaction score: -0.94
[36]
  interaction score: 0.295

B4: O11-bP (peptide)
chain: DKIKQLKQEIQRLEQENQRLEWENQKLEQ
[37]
  interaction score: 0.837
[38]
  interaction score: -0.79
[39]
  interaction score: -0.376
[40]
  interaction score: -0.129
[41]
  interaction score: -0.577
[42]
  interaction score: -1.05
[43]
  interaction score: 0.514
[44]
  interaction score: -1.03
[45]
  interaction score: -0.395
[46]
  interaction score: -1.07
[47]
  interaction score: -0.645
[48]
  interaction score: -1.44
[49]
  interaction score: -0.41
[50]
  interaction score: 0.69
